Biological target: T1, HLA-DR1 (DR1αβ; DRA and DRB1*0101) on cells (human)
T1 construct: whole, on cells
Test: flow cytometry on human MHC class II expressing cells

B1: Staphylococcal enterotoxin A (SEA), wild type (ligand)
chain: SEKSEEINEKDLRKKSELQGTALGNLKQIYYYNEKAKTENKESHDQFLQHTILFKGFFTDHSWYNDLLVDFDSKDIVDKYKGKKVDLYGAYYGYQCAGGTPNKTACMYGGVTLHDNNRLTEEKKVPINLWLDGKQNTVPLETVKTNKKNVTVQELDLQARRYLQEKYNLYNSDVFDGKVQRGLIVFHTSTEPSVNYDLFGAQGQYSNTLLRIYRDNKTINSENMHIDIYLYTS
  binding result: binds

— patent EP1105154B1 (Walter Reed Army Institute of Research, dated 2016)
